Kd data for 16 molecules are collected here from patent US20110144187, “APTAMER INHIBITION OF THROMBUS FORMATION” (published 2011).

In data set [1] the test system is fibrinogen (Homo sapiens), P02671-2+P02675+P02679-2. Kind of data set: filter. The conditions noted are these: quinoline-8-boronic acid-modified T (B-TTP) replacing T outside the primer region; average Kd of DNA pool after round 13.
For data set [2], the target named is T1, fibrinogen (Homo sapiens, UniProt P02671-2;P02675;P02679-2 P02671-2:20-629,P02675:31-491,P02679-2:27-437). Kind of data set: filter; equilibrium filtration; Tables 3 and 4 give 102 ± 40. To be noted: tags: Sigma-Aldrich, from human plasma, about 60% protein; chain copies: 2; label: 32P (alpha-32P-dATP). As for the experimental part: (§1) Dissociation constants in solution were determined by equilibrium filtration (Jenison et al., Science 1994, 263, 1425-1429; Huang & Szostak, RNA 2003, 9: 1456-1463;). Using this technique, the bound and unbound ligand (DNA) partition between the two portions were separated by a membrane. DNA was first amplified into dsDNA using two primers by PCR (25 cycles of 0.5 min at 94° C., 0.5 min at 46° C., and 0.5 min at 72° C., followed by 5 min at 72° C.). The dsDNA product was then split into ssDNA using one primer and α-³²P-dATP by one-round PCR. The ³²P-labeled ssDNA ligand (10 nM) and the protein (1-1000 nM) in the 100 μL of binding buffer were incubated for 15 min at 25° C. prior to loading into the Microcon YM-100 unit (Millipore, Billerica, Mass.). The solution was centrifuged at 13,000 g for 10 sec to saturate the membrane, and the filtrate was transferred back to the unit. […] Aliquots (10 μL) were taken from both the remaining solution and the filtrate, and radioactivity in each aliquot was determined by Beckman LS 6500 liquid scintillation counter. […]
T1 sequence (P02671 20-629, chain 1 of 3): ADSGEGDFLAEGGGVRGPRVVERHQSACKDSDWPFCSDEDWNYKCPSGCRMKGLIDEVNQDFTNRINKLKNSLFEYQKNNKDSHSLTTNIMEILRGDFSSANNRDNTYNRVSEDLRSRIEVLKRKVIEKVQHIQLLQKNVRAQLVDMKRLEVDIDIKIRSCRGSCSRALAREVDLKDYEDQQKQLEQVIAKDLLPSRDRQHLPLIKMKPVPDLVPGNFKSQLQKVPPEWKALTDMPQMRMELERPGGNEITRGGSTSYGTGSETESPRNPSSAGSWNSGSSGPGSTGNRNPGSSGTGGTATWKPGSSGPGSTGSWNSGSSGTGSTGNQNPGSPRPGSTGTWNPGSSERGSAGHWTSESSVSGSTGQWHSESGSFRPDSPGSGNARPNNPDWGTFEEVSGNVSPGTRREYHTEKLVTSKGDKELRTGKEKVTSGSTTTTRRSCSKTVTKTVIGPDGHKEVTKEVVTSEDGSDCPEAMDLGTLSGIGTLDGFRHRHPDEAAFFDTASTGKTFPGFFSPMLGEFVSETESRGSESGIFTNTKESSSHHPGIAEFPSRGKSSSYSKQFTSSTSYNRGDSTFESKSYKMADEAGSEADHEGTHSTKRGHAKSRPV
T1 sequence (P02675 31-491, chain 2 of 3): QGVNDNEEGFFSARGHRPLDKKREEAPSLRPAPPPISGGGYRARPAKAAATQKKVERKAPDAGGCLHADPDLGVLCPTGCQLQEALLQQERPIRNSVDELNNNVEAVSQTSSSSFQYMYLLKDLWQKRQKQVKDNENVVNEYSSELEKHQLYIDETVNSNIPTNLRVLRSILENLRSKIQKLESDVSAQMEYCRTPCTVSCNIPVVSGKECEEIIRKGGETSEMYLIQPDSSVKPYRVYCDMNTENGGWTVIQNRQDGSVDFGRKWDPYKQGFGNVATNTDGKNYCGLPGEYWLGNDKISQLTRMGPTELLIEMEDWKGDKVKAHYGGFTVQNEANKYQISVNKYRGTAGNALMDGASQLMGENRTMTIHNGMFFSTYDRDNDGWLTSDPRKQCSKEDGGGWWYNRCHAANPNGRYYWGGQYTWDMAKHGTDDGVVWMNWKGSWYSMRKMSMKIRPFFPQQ
T1 sequence (P02679 other isoform, or with tags, fused parts or gaps, chain 3 of 3): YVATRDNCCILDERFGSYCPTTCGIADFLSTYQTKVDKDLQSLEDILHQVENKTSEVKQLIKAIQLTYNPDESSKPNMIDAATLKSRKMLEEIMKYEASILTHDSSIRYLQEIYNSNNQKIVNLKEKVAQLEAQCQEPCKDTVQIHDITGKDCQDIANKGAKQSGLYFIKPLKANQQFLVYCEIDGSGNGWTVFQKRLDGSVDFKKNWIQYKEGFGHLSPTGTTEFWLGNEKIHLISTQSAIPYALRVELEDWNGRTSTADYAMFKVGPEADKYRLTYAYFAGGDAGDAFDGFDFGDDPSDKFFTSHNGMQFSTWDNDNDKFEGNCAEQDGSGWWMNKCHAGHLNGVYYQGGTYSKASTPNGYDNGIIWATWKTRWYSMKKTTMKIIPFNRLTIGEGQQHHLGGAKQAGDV
(§2) To determine the extent to which the aptamers 85A (SEQ ID NO.: 13), 85B (SEQ ID NO.: 14), and 85C (SEQ ID NO.: 15) bind specifically to fibrinogen, their dissociation constants (Kd) were measured using the equilibrium filtration method with radiolabeled α-³²P-dATP. […]

The target of data set [3] is T2, periodate-treated fibrinogen (Homo sapiens, UniProt P02671-2;P02675;P02679-2 P02671-2:20-629,P02675:31-491,P02679-2:27-437). Kind of data set: filter; equilibrium filtration; value as printed. The conditions noted are these: tags: Sigma-Aldrich fibrinogen, glycans oxidised with sodium periodate; chain copies: 2; label: 32P (alpha-32P-dATP). As for the experimental part:
as §1, §2

The target in data set [4] is T3, deglycosylated fibrinogen (TFMS-treated) (Homo sapiens, UniProt P02671-2;P02675;P02679-2 P02671-2:20-629,P02675:31-491,P02679-2:27-437). Kind of data set: filter; equilibrium filtration; value as printed. The conditions noted are these: tags: Sigma-Aldrich fibrinogen, chemically deglycosylated with trifluoromethanesulfonic acid; chain copies: 2; label: 32P (alpha-32P-dATP). As for the experimental part: as §1, §2
T3 sequence (P02671 20-629, chain 1 of 3): as the sequence (P02671 20-629, chain 1 of 3) above
T3 sequence (P02675 31-491, chain 2 of 3): as the sequence (P02675 31-491, chain 2 of 3) above
T3 sequence (P02679 other isoform, or with tags, fused parts or gaps, chain 3 of 3): as the sequence (P02679 other isoform, or with tags, fused parts or gaps, chain 3 of 3) above

For data set [5], the target named is T1, fibrinogen. Kind of data set: filter; equilibrium filtration. The conditions noted are these: tags: Sigma-Aldrich, from human plasma, about 60% protein; chain copies: 2; label: 32P (alpha-32P-dATP). As for the experimental part: (§3) Dissociation constants in solution were determined by equilibrium filtration (Jenison et al., Science 1994, 263, 1425-1429; Huang & Szostak, RNA 2003, 9: 1456-1463;). Using this technique, the bound and unbound ligand (DNA) partition between the two portions were separated by a membrane. DNA was first amplified into dsDNA using two primers by PCR (25 cycles of 0.5 min at 94° C., 0.5 min at 46° C., and 0.5 min at 72° C., followed by 5 min at 72° C.). The dsDNA product was then split into ssDNA using one primer and α-³²P-dATP by one-round PCR. The ³²P-labeled ssDNA ligand (10 nM) and the protein (1-1000 nM) in the 100 μL of binding buffer were incubated for 15 min at 25° C. prior to loading into the Microcon YM-100 unit (Millipore, Billerica, Mass.). The solution was centrifuged at 13,000 g for 10 sec to saturate the membrane, and the filtrate was transferred back to the unit. The solution was centrifuged for another 20 sec, and the filtrate (about 10 μL) was collected. Aliquots (10 μL) were taken from both the remaining solution and the filtrate, and radioactivity in each aliquot was determined by Beckman LS 6500 liquid scintillation counter. All binding assays were duplicated. The equilibrium dissociation constants (Kd) of the ligand-protein interaction were obtained by fitting the dependence of bound fractions of specific binding on the concentration of the […] to the equation Y=B max X/(Kd+X), using the SigmaPlot program.
(§4) To determine the extent to which the aptamers 85A (SEQ ID NO.: 13), 85B (SEQ ID NO.: 14), and 85C (SEQ ID NO.: 15) bind specifically to fibrinogen, their dissociation constants (Kd) were measured using the equilibrium filtration method with radiolabeled α-³²P-dATP. The target substrate to which the aptamer was binding was fibrinogen (FIG. 12A), deglycosylated fibrinogen (FIG. 12B) and periodated fibrinogen (FIG. 12C).

The target in data set [6] is T1, fibrinogen. Kind of data set: filter; equilibrium filtration; peroxide-treated aptamer. The conditions noted are these: tags: Sigma-Aldrich, from human plasma, about 60% protein; chain copies: 2; label: 32P (alpha-32P-dATP).
For data set [7], the target named is T1, fibrinogen. Kind of data set: filter; equilibrium filtration; Table 1 prints a different (93, possibly truncated) value. To be noted: tags: Sigma-Aldrich, from human plasma, about 60% protein; chain copies: 2; label: 32P (alpha-32P-dATP). The procedure:
as §1, §2

Data set [8] concerns the target T2, periodate-treated fibrinogen. Kind of data set: filter; equilibrium filtration. To be noted: tags: Sigma-Aldrich fibrinogen, glycans oxidised with sodium periodate, chain copies: 2. The procedure: as §3, §4
Data set [9] has as its target T3, deglycosylated fibrinogen (TFMS-treated). Kind of data set: filter; equilibrium filtration. The conditions noted are these: tags: Sigma-Aldrich fibrinogen, chemically deglycosylated with trifluoromethanesulfonic acid, chain copies: 2. The procedure:
as §3, §4

The target in data set [10] is T1, fibrinogen. Kind of data set: SPR; biotin-aptamer on streptavidin chip. The conditions noted are these: tags: Sigma-Aldrich, from human plasma, about 60% protein, chain copies: 2. The procedure:
0.2 M EDC and 0.05 M NHS were mixed in water. After degassing, 500 μL of this EDC-NHS solution was infused into both channels on the chip over a period of about 10 min (twice). Then a 1 mg/mL streptavidin stock solution was diluted 10-fold with 20 mM sodium acetate buffer at pH 5.2. The streptavidin solution (500 μL) was infused into both the detection and control channels over about 10 min period. […] 1M ethanolamine HCl solution (500 μL) (pH 8.5) was infused in over a period of 3 min to cap un-reacted (and activated) carboxyl sites. Then biotin-labeled aptamer (B-TTP or d-TTP) solution (500 μL, in PBS/T) was infused into the detection channel only over a period of about 10 min (twice). After aptamer immobilization, different fibrinogen concentrations were used in binding studies. In each run, fibrinogen solution was infused in at a flow rate of 0.05 mL/min for 6 min. After each injection, 1M ethanolamine HCl (pH 8.5) solution was infused in as the regeneration solution. All experiments were duplicated.
The KD values were obtained for aptamer 85B (SEQ ID NO.: 14) and its mutational analogs by using a surface plasmon resonance (SPR) instrument. SPR is a method to detect the index of the refraction of surface bound layers, as described by Karlsson et al., (2000) J. Anal. Biochem. 278: 1-13, and Shimomura et al., (2001) Anal. Chim. Acta. 434: 223-230 both of which are incorporated herein by reference in their entireties). This method has been used to determine the kinetic on and off rates for the interactions between biomolecules and binding receptors. In the aptamer-fibrinogen binding studies, streptavidin was immobilized to chips coated with a SAM surface that has terminal carboxyl functional groups. Biotin-labeled DNA was subsequently immobilized on the chip through biotin-streptavidin interactions. Fibrinogen solutions of various concentrations were then used for binding constant determination using kinetic data, as described by Lin et al., (2007). […] Opin. Biotechnol. 8: 498-502; Myszka, D. G. (2000) Methods Enzymol. 323: 325-340; and Myszka & Rich (2000) Pharm. Sci. Technology Today 3: 310-317. Table 6 lists the KD values of 85B and its mutations.

In data set [11] the target is T1, fibrinogen. Kind of data set: filter; equilibrium filtration, same buffer. The conditions noted are these: tags: Sigma-Aldrich, from human plasma, about 60% protein; chain copies: 2; label: 32P (filtration) or 5'-biotin (SPR). As for the experimental part: as §1, §2
[12] abbreviates: label: 32P (filtration) or 5'-biotin (SPR).

T2 sequence (P02671 20-629, chain 1 of 3): as the sequence (P02671 20-629, chain 1 of 3) above
T2 sequence (P02675 31-491, chain 2 of 3): as the sequence (P02675 31-491, chain 2 of 3) above
T2 sequence (P02679 other isoform, or with tags, fused parts or gaps, chain 3 of 3): as the sequence (P02679 other isoform, or with tags, fused parts or gaps, chain 3 of 3) above
Sequence of fibrinogen (Homo sapiens), P02671-2+P02675+P02679-2 (P02671 20-629, chain 1 of 3): as the sequence (P02671 20-629, chain 1 of 3) above
Sequence of fibrinogen (Homo sapiens), P02671-2+P02675+P02679-2 (P02675 31-491, chain 2 of 3): as the sequence (P02675 31-491, chain 2 of 3) above
Sequence of fibrinogen (Homo sapiens), P02671-2+P02675+P02679-2 (P02679 other isoform, or with tags, fused parts or gaps, chain 3 of 3): as the sequence (P02679 other isoform, or with tags, fused parts or gaps, chain 3 of 3) above

In [1], “CCTTCGTTGTCTGCCTTCGTNNNNNNNNNNNNNNNNNNNNNNNNNNNNNNNNNNNNNNNNNNNNNNNNNNACCCTTCAGAATTCGCACCA [round 13 SELEX pool B-TTP]” came in with a Kd of 5000 nM.

B1: 85A TTP (ssDNA)
DNA: CCTTCGTTGTCTGCCTTCGTAGCGGATCGAATTACGCGTTAACGGCAACCGATAACGGGACCGATTGCACACCCTTCAGAATTCGCACCA
modifications: none (natural T)
Take B1: the values for the Kd in data set [2], in data set [3] and in [4] were 102 nM, 67.4 nM and 60.2 nM, respectively.

B2: 85A M-TTP (ssDNA)
DNA: CCTTCGTTGTCTGCCTTCGTAGCGGATCGAATTACGCGTTAACGGCAACCGATAACGGGACCGATTGCACACCCTTCAGAATTCGCACCA
modifications: 5-alkynyl-amide T without boronic acid (M-TTP) replacing T outside the primer region
B2: the affinity in [5], expressed as Kd, was 138 nM.

B3: 85A B-TTP, H2O2-treated (ssDNA)
DNA: CCTTCGTTGTCTGCCTTCGTAGCGGATCGAATTACGCGTTAACGGCAACCGATAACGGGACCGATTGCACACCCTTCAGAATTCGCACCA
modifications: B-TTP-derived T with boronic acid removed by peroxide oxidation
With B3, the dissociation constant Kd in data set [6] came to 173 nM.

B4: 85C TTP (ssDNA)
DNA: CCTTCGTTGTCTGCCTTCGTAGTCGACTCTGACGCATGGACGTATCCTGTGCGTATGCATTATGAAGCACACCCTTCAGAATTCGCACCA
modifications: none (natural T)
For the molecule B4, the Kd in [7] came to 122 nM; in [8] (label: 32P (alpha-32P-dATP)), 321 nM; in data set [9] (label: 32P (alpha-32P-dATP)), 256 nM.

B5: 85B-2 B-TTP (ssDNA)
DNA: CCTTCGTTGTCTGCCTTCGTAGGACCGCAGACATCGACGCAGGGAAAATCCGCAAGTCCAGCCAAATGCCACCCTTCAGAATTCGCACCA
modifications: quinoline-8-boronic acid-modified T (B-TTP) replacing T outside the primer region
In data set [10] (label: 5'-biotin), B5 showed a dissociation constant (Kd) of 63.7 nM.

B6: 85B-3 B-TTP (ssDNA)
DNA: CCTTCGTTGTCTGCCTTCGTAGGACCGCAGACAACGACGCAGGGAAATACCGCAAGTCCAGCCAAATGCCACCCTTCAGAATTCGCACCA
modifications: quinoline-8-boronic acid-modified T (B-TTP) replacing T outside the primer region
The molecule B6 came in with a Kd in data set [10] (label: 5'-biotin) of 17.6 nM.

B7: 85B-1 B-TTP (ssDNA)
DNA: CCTTCGTTGTCTGCCTTCGTAGGACCGCAGACAACGACGCAGGGAAATTCCGCAAGTCCAGCCAAATGCCACCCTTCAGAATTCGCACCA
modifications: quinoline-8-boronic acid-modified T (B-TTP) replacing T outside the primer region
In the case of B7, the Kd in [10] (label: 5'-biotin) worked out at 205 nM.

B8: 85B-4 B-TTP (ssDNA)
DNA: CCTTCGTTGTCTGCCTTCGTAGGACCGCAGACATCGACGCAGGGAAATTCCGCAAGACCAGCCAAAAGCCACCCTTCAGAATTCGCACCA
modifications: quinoline-8-boronic acid-modified T (B-TTP) replacing T outside the primer region
Molecule B8 gave a Kd in data set [10] (label: 5'-biotin) of 11.2 nM.

B9: 85B-1 dTTP (ssDNA)
DNA: CCTTCGTTGTCTGCCTTCGTAGGACCGCAGACAACGACGCAGGGAAATTCCGCAAGTCCAGCCAAATGCCACCCTTCAGAATTCGCACCA
modifications: none (natural T)
The molecule B9 had a Kd in data set [10] (label: 5'-biotin) of 507 nM.

B10: 85B TTP (ssDNA)
DNA: CCTTCGTTGTCTGCCTTCGTAGGACCGCAGACATCGACGCAGGGAAATTCCGCAAGTCCAGCCAAATGCCACCCTTCAGAATTCGCACCA
modifications: none (natural T)
For B10, the Kd in data set [11] was 63.8 nM; in [10] (setting [12]) it was 127 nM; in data set [8] (setting [12]), 130 nM; in [9] (setting [12]), 140 nM.

B11: 85B-4 dTTP (ssDNA)
DNA: CCTTCGTTGTCTGCCTTCGTAGGACCGCAGACATCGACGCAGGGAAATTCCGCAAGACCAGCCAAAAGCCACCCTTCAGAATTCGCACCA
modifications: none (natural T)
Regarding B11, the affinity in [10] (label: 5'-biotin), expressed as Kd, was 238 nM.

B12: 85B-2 dTTP (ssDNA)
DNA: CCTTCGTTGTCTGCCTTCGTAGGACCGCAGACATCGACGCAGGGAAAATCCGCAAGTCCAGCCAAATGCCACCCTTCAGAATTCGCACCA
modifications: none (natural T)
Consider B12, for which the Kd in data set [10] (label: 5'-biotin) stood at 127 nM.

B13: 85B-3 dTTP (ssDNA)
DNA: CCTTCGTTGTCTGCCTTCGTAGGACCGCAGACAACGACGCAGGGAAATACCGCAAGTCCAGCCAAATGCCACCCTTCAGAATTCGCACCA
modifications: none (natural T)
In [10] (label: 5'-biotin), B13 showed a Kd of 233 nM.

B14: 85B-5 B-TTP (ssDNA)
DNA: CCTTCGTTGTCTGCCTTCGTAGGACCGCAGACATCGACGCAGGGAAATTCCGCAAGTCCAGCCAAAAGCCACCCTTCAGAATTCGCACCA
modifications: quinoline-8-boronic acid-modified T (B-TTP) replacing T outside the primer region
B14: the Kd in data set [10] (label: 5'-biotin) was found to be 329 nM.

B15: 85B-5 dTTP (ssDNA)
DNA: CCTTCGTTGTCTGCCTTCGTAGGACCGCAGACATCGACGCAGGGAAATTCCGCAAGTCCAGCCAAAAGCCACCCTTCAGAATTCGCACCA
modifications: none (natural T)
As to B15, in [10] (label: 5'-biotin), the Kd came out at 1080 nM.
